Literature values as cited in publication PMC8395526.

Biological target: erbB2 (Homo sapiens) (UniProt P04626)
Test: SPR

Kd: 1.89 µM
Substance: erbB2-SbdIV subdomain IV (from UniProt P04626)
